{"source": "paper PMC10998906", "about": "(NPJ Vaccines, 2024)", "target": "HA (NL03, A/Netherlands/213/2003(H3N2)) (Influenza A virus …, strain)", "test": "negative-stain EM", "settings": "both partners purified", "data": [{"binder": "CR9114 Fab (Fab, V domains shown) VH: QVQLVQSGAEVKKPGSSVKVSCKSSGGTSNNYAISWVRQAPGQGLDWMGGISPIFGSTAYAQKFQGRVTISADIFSNTAYMELNSLTSEDTAVYFCARHGNYYYYSGMDVWGQGTTVTVSS VL: QSALTQPPAVSGTPGQRVTISCSGSDSNIGRRSVNWYQQFPGTAPKLLIYSNDQRPSVVPDRFSGSKSGTSASLAISGLQSEDEAEYYCAAWDDSLKGAVFGGGTQLTVL", "values": [{"measurement": "stoichiometry N", "result": 1, "unit": "Fab per particle"}]}]}
